Laboratory results: patent US20190153097A1 (AGENCY FOR SCIENCE TECHNOLOGY AND RESEARCH, published 2019)

Target: T1, human CTLA-4 (human, UniProt P16410 36-161, limits assumed)
T1 construct: Soluble protein, construct not described; also called huCTLA-4; CD152
Experiment: blocking ELISA: CD80 coated, antibody pre-incubated with human CTLA-4, binding of CTLA-4 to CD80 detected

T1 sequence (P16410 36-161 limits assumed): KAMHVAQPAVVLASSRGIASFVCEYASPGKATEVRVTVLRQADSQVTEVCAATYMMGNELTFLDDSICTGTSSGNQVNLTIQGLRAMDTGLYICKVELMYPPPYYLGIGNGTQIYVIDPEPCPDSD

IC50 (read off the curve): ~2 nM
B1: L3D10 (commercial mouse anti-human CTLA-4 IgG1) (antibody, V domains shown)
VH: QVQLKESGPGLVAPSQSLSITCTVSGFSLTSYGLSWVRQPPGKGLEWLGVIWYDGNTNFHSALISRLTISKDNSKSQVFLELNSLQTDDTATYYCAKTEGHYYGSNYGYYALDYWGQGTSVTVSS
VL: DIQMTQSPASLSVSVGETVTITCRASENIYSNLAWYQQKQGKSPQLLVYAATNLADGVPSRFSGSGSGTQYSLKINSLQSEDFGTYFCQHLWGTPYTFGGGTKLEIK
